Entries after “also recorded” stand apart in the source; their conditions may differ. Read-outs that look alike come from different tables or passages of the source.
T1: rNav1.2a VSD IV paddle peptide (R1629A/L1630A, SEQ ID NO: 4) (Rattus norvegicus, UniProt P04775, L1630A/R1629A)
T1 construct: purchased ProteoGenix; host or cells: chemical synthesis (Fmoc solid phase)
T1 sequence (P04775 1605-1636 R1629A/L1630A): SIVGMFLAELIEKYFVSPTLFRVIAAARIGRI

B1: CssIV: β-scorpion toxin from Centruroides suffusus suffusus (protein)
chain: KEGYLVNSYTGCKFECFKLGDNDYCLRECRQQYGKGSGGYCYAFGCWCTHLYEQAVVWPLPNKTCN
B2: AaHII: Nav channel-selective α-scorpion toxin from Androctonus australis hector; model toxin (protein)
chain: VKDGYIVDDVNCTYFCGRNAYCNEECTKLKGESGYCQWASPYGNACYCYKLPDHVRTKGPGRCH

Experiments:
[1] = target: T1, rNav1.2a VSD IV paddle peptide (R1629A/L1630A, SEQ ID NO: 4); assay: SPR on immobilized rNav1.2a VSD IV paddle peptide; type: binding
[2] = system: rNav1.2a/Kv2.1 VSD IV paddle chimera; assay: Two-electrode voltage-clamp, rNav1.2a/Kv2.1 VSD IV paddle chimera in Xenopus oocytes; type: cell-based, rat
Excerpt: (§1) The DNA sequence of rat (r)Nav1.2a (provided by A. Goldin, University of California, Irvine, Irvine, Calif.), rKv2.1 (provided by K. J. Swartz, National Institutes of Health), and the rNav1.2a/Kv2.1 VSD II or IV chimera was confirmed by automated DNA sequencing, and cRNA was synthesized using T7 polymerase (mMessage mMachine™ kit; Life Technologies) after linearizing the DNA with appropriate restriction enzymes. Channels were expressed in Xenopus oocytes (obtained from Xenopus 1) and studied after a 1-d incubation after cRNA injection (incubated at 17° C. in 96 mM NaCl, 2 mM KCl, 5 mM HEPES, 1 mM MgCl2, 1.8 mM CaCl2, and 50 μg/ml gentamycin, pH 7.6 with NaOH) using two-electrode voltage-clamp recording techniques (OC-725C; Warner Instruments) with a 150-μl recording chamber. Data were filtered at 4 kHz and digitized at 20 kHz using pClamp™ 10 software (Molecular Devices). Microelectrode resistances were 0.5-1.5 MΩ when filled with 3 M KCl. For Kv chimera channel experiments, the external recording solution contained (mM): 50 KCl, 50 NaCl, 5 HEPES, 1 MgCl2, and 0.3 CaCl2, pH 7.6 with NaOH. For rNav1.2a experiments, the external recording solution contained (mM): 100 NaCl, 5 HEPES, 1 MgCl2, and 1.8 CaCl2, pH 7.6 with NaOH. All experiments were performed at ˜22° C. Leak and background conductances, identified by blocking the channel with agitoxin-2 (provided by K. J. Swartz), have been subtracted for all of the Kv channel currents shown. […] Voltage-activation relationships were obtained by measuring tail currents for Kv channels or steady-state currents and calculating conductance for Nav channels, and a single Boltzmann function was fitted to the data according to I/Imax=[1c+cexp(−zF(Vc−cV1/2)/RT)]^−1, where I/Imax is the normalized tail-current amplitude, z is the equivalent charge, V1/2 is the half-activation voltage, F is Faraday's constant, R is the gas constant, and T is temperature in kelvin. For all channels, voltage-activation relationships were recorded in the absence and presence of toxin. The ratio of currents (I/I0) recorded in the presence (I) and absence (I0) of toxin was calculated for voltages typically ranging from −140 to 10 cmV, depending on the construct. […] The apparent equilibrium dissociation constant (apparent KD) for Kv channels was calculated according to KD=((1/(1c−cFu^1/4))c−c1)[toxin], assuming four independent toxin-binding sites per channel. Results are given as mean±SEM unless noted otherwise. Offline data analysis was performed using Clampfit 10™ (Molecular Devices), Origin 8.0™ (OriginLab), and Excel™ (Microsoft). All chemicals were obtained from Sigma-Aldrich.
(§2) Representative sodium currents were elicited by a 50-ms depolarization to a suitable membrane voltage (−20 to −15 mV) before (black) and after toxin addition (green) from a holding voltage of −90 mV. […] For each toxin, K^+ currents were elicited by a 300-ms depolarization to 0 mV from a holding voltage of −90 mV (tail voltage was −60 mV). […] For each toxin, K^+ currents (top) were elicited by a 300-ms depolarization near the foot of the voltage-activation curve (bottom) from a holding voltage of −90 mV.

[3] = target: rNav1.2a/Kv2.1 VSD IV paddle chimera; conditions: WT chimera; read-out: apparent KD, WT chimera (previously shown); cited from earlier work
[4] = system: rNav1.2a; assay: Two-electrode voltage-clamp, rNav1.2a expressed in Xenopus oocytes; type: cell-based, rat; conditions: 100 nM toxin
Excerpt: as §1, §2

[5] = target: rNav1.2a/Kv2.1 VSD IV chimera R1629A; conditions: R1629A substitution; read-out: apparent KD; cited from earlier work
[6] = system: rNav1.2a/Kv2.1 VSD IV chimera containing the R1629A/L1630A substitutions; type: cell-based, rat
Excerpt: The DNA sequence of rat (r)Nav1.2a (provided by A. Goldin, University of California, Irvine, Irvine, Calif.), rKv2.1 (provided by K. J. Swartz, National Institutes of Health), and the rNav1.2a/Kv2.1 VSD II or IV chimera was confirmed by automated DNA sequencing, and cRNA was synthesized using T7 polymerase (mMessage mMachine™ kit; Life Technologies) after linearizing the DNA with appropriate restriction enzymes. Channels were expressed in Xenopus oocytes (obtained from Xenopus 1) and studied after a 1-d incubation after cRNA injection (incubated at 17° C. in 96 mM NaCl, 2 mM KCl, 5 mM HEPES, 1 mM MgCl2, 1.8 mM CaCl2, and 50 μg/ml gentamycin, pH 7.6 with NaOH) using two-electrode voltage-clamp recording techniques (OC-725C; Warner Instruments) with a 150-μl recording chamber. Data were filtered at 4 kHz and digitized at 20 kHz using pClamp™ 10 software (Molecular Devices). […] For all channels, voltage-activation relationships were recorded in the absence and presence of toxin. The ratio of currents (I/I0) recorded in the presence (I) and absence (I0) of toxin was calculated for voltages typically ranging from −140 to 10 cmV, depending on the construct. […] The apparent equilibrium dissociation constant (apparent KD) for Kv channels was calculated according to KD=((1/(1c−cFu^1/4))c−c1)[toxin], assuming four independent toxin-binding sites per channel. […]

[7] = target: rNav1.2a/Kv2.1 VSD IV chimera L1630A; conditions: L1630A substitution; read-out: apparent KD; cited from earlier work
[8] = heterogeneous ligand model, 15-2,000 nM toxin, 50 fmol peptide, n=3, mean±SD
[9] = heterogeneous ligand model, 50 fmol peptide
[10] = heterogeneous ligand model, 50 fmol peptide, n=3, mean±SD

rNav1.2a/Kv2.1 VSD IV paddle chimera, sequence (P04775 1605-1636 limits assumed, stated change not applied): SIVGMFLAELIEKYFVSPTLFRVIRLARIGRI
rNav1.2a/Kv2.1 VSD IV chimera L1630A, sequence (P04775 1605-1636 L1630A limits assumed): as the sequence (P04775 1605-1636 limits assumed, stated change not applied) above, with L26A counted along it
rNav1.2a/Kv2.1 VSD IV chimera R1629A, sequence (P04775 1605-1636 R1629A limits assumed): as the sequence (P04775 1605-1636 limits assumed, stated change not applied) above, with R25A counted along it

Row | Molecule | SPR binding to VSD IV paddle peptide ([1]; 100 nM toxin, 500 fmol peptide) | effect on VSD IV chimera voltage-activation relationship ([2]; 1 μM toxin) | Kd [3] [nM] | effect on rNav1.2a fast inactivation ([4]; 50-ms test pulse) | fast inactivation time constant (τ) after toxin application ([4]; single-exponential fit of current decay, n=3, mean±SEM) | Kd [5] [nM] | inhibition of the double mutant channel ([6]; 100 nM toxin) | Kd ([6]; read-out: apparent KD) [nM] | Kd [7] [nM] | association rate ka1 [1, 8] [M⁻¹ s⁻¹] | association rate ka2 [1, 8] [M⁻¹ s⁻¹] | dissociation rate kd1 [1, 8] [s⁻¹] | dissociation rate kd2 [1, 8] [s⁻¹] | RUmax1 [1, 9] | RUmax2 [1, 9] | high affinity KD1 (kd1/ka1) [1, 10] [nM] | lower affinity KD2 (kd2/ka2) [1, 10] [nM] | Kd ([2]; 100 nM AaHII, n=3, mean±SEM, read-out: apparent KD) [nM] | K+ current inhibition of VSD IV chimera ([2]; 100 nM toxin)
1 | B1 | no RUs could be detected | does not influence |  |  |  |  |  |  |  |  |  |  |  |  |  |  |  |  | 
2 | B2 |  |  | 1900 | inhibits rNav1.2a fast inactivation | 4.9±0.1 | 235 ± 24 | strongly inhibits | 193 ± 42 | 205 ± 23 | 2330 ± 910 | 38200 ± 4700 | 0.000979 ± 0.00014 | 0.0281 ± 0.0058 | 135 | 23 | 479 ± 241 | 747 ± 203 | 1010 | influenced less; also recorded: influenced to a much lesser extent

— patent US10429300B2, “Surface plasmon resonance approach to monitor protein-ligand interactions” (The Johns Hopkins University, priority 2015, dated 2019)
